Measured values taken from the supplement of paper PMC10201428.
± gives the standard deviation of the averaged measurements.

Columns and labels:
[1] = tested on: VchCAST RNA-guided transposition machinery (E. coli BL21(DE3) host, lacZ target); assay: relative integration efficiency (T-RL orientation) vs wild-type transposon end (log2 (normalized fold change)); transposon end mutated: right end (5 bp flank + 75 bp right end); higher = more efficient transposition
Method in brief: (§1)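 A T7-driven effector plasmid encoding a CRISPR array, tniQ-cas8-cas7-cas6 and tnsA-tnsB-tnsC was co-transformed into E. coli BL21(DE3) together with a pUC57 mini-transposon donor holding barcoded pools of 1549 left-end or 1849 right-end variants. Transformants were plated with 0.1 mM IPTG at 37°C for 18 h. Illumina sequencing of PCR-amplified input plasmids and genomic integration junctions gave barcode abundances, and relative integration efficiency is their output/input fold change, normalised to reference barcodes and log-transformed.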

[2] = tested on: VchCAST RNA-guided transposition machinery (E. coli BL21(DE3) host, lacZ target); assay: relative integration efficiency (T-LR orientation) vs wild-type transposon end (log2 (normalized fold change)); transposon end mutated: right end (5 bp flank + 75 bp right end); higher = more efficient transposition
Method in brief: as §1

Sequence	relative integration efficiency (log2) [1]	relative integration efficiency (log2) [2]
ACATTTGTTCATACAACCCTAAAATGATAATTACACCCATAAATTCATAATTATCACACCCAATTTAACTATAACGCTCTGATCATAGTCAGACCAACATTGCTACGACCCGTATTCGCACCGACAC	-5.31 ± 0.95	-2.644 ± 0.026
ACATTTGTTCATACAACCCTAAAATGATAATTACACCCATAAATTCATCATTATCACACCCAATTTAACTATAACGCTCTGATCATAGTCAGACCAACATTGCTACGACCCGTATTCGCACCGACAC	-5.84 ± 0.57	-3.3 ± 0.36
ACATTTGTTCATACAACCCTAAAATGATAATTACACCCATAAATTCATCATTATCACCCCCAATTTAACTATAACGCTCTGATCATAGTCAGACCAACATTGCTACGACCCGTATTCGCACCGACAC	-5.29 ± 0.22	-3.65 ± 0.85
ACATTTGTTCATACAACCCTAAAATGATAATTACACCCATAAATTGATAATTATCACACCCAATTTAACTATAACGCTCTGATCATAGTCAGACCAACATTGCTACGACCCGTATTCGCACCGACAC	-2.24 ± 0.22	-1.03 ± 0.5
ACATTTGTTCATACAACCCTAAAATGATAATTACACCCATAAATTGATAATTATCACCCCCAATTTAACTATAACGCTCTGATCATAGTCAGACCAACATTGCTACGACCCGTATTCGCACCGACAC	-2.74 ± 0.42	-0.953 ± 0.35
ACATTTGTTCATACAACCCTAAAATGATAATTACACCCATAAATTGATCATTATCACACCCAATTTAACTATAACGCTCTGATCATAGTCAGACCAACATTGCTACGACCCGTATTCGCACCGACAC	-3.41 ± 0.23	-1.36 ± 0.72
ACATTTGTTCATACAACCCTAAAATGATAATTACACCCATAAATTGATCATTATCACCCCCAATTTAACTATAACGCTCTGATCATAGTCAGACCAACATTGCTACGACCCGTATTCGCACCGACAC	-2.63 ± 0.59	-0.724 ± 0.35
ACATTTGTTCATCCAACCATAAAATGATAATTACACCCATAAATGGATAATTATCACACCCAATTTAACTATAACGCTCTGATCATAGTCAGACCAACATTGCTACGACCCGTATTCGCACCGACAC	-2.08 ± 0.37	-0.431 ± 0.44
ACATTTGTTCATCCAACCATAAAATGATAATTACACCCATAAATGGATCATTATCACACCCAATTTAACTATAACGCTCTGATCATAGTCAGACCAACATTGCTACGACCCGTATTCGCACCGACAC	-2.36 ± 0.26	-1.01 ± 0.52
ACATTTGTTCATCCAACCATAAAATGATAATTACACCCATAAATTCATAATTATCACACCCAATTTAACTATAACGCTCTGATCATAGTCAGACCAACATTGCTACGACCCGTATTCGCACCGACAC	-2.84 ± 0.39	-1.1 ± 0.16
ACATTTGTTCATCCAACCATAAAATGATAATTACACCCATAAATTCATCATTATCACACCCAATTTAACTATAACGCTCTGATCATAGTCAGACCAACATTGCTACGACCCGTATTCGCACCGACAC	-2.92 ± 0.45	-0.745 ± 0.19
ACATTTGTTCATCCAACCATAAAATGATAATTACACCCATAAATTGATAATTATCACACCCAATTTAACTATAACGCTCTGATCATAGTCAGACCAACATTGCTACGACCCGTATTCGCACCGACAC	-1.42 ± 0.29	0.451 ± 0.23
ACATTTGTTCATCCAACCATAAAATGATAATTACACCCATAAATTGATCATTATCACACCCAATTTAACTATAACGCTCTGATCATAGTCAGACCAACATTGCTACGACCCGTATTCGCACCGACAC	-2.44 ± 0.32	0.101 ± 0.12
ACATTTGTTCTATCAACCATAAAATGATAATTACACCCATAAATTGATAATTATCACACCCATAAATTGATATTGCCTCTGATCATAGTCAGACCAACATTGCTACGACCCGTATTCGCACCGACAC	-1.53 ± 0.17	-4.42 ± 0.25
ACATTTGTTCTTACAACCATAAAATGATAATTACACCCATAAATTGATAATTATCACACCCATAAATTGATATTGCCTCTGATCATAGTCAGACCAACATTGCTACGACCCGTATTCGCACCGACAC	-0.825 ± 0.14	-3.55 ± 0.75
ACATTTGTTGAATCAACCATAAAATGATAATTACACCCATAAATTGATAATTATCACACCCATAAATTGATATTGCCTCTGATCATAGTCAGACCAACATTGCTACGACCCGTATTCGCACCGACAC	0.38 ± 0.14	0.00973 ± 0.13
ACATTTGTTGAATGTACCATAAAATGATAATTACACCCATAAATTGATAATTATCACACCCATAAATTGATATTGCCTCTGATCATAGTCAGACCAACATTGCTACGACCCGTATTCGCACCGACAC	-0.836 ± 0.071	-1.92 ± 0.32
ACATTTGTTGACAACCATAAAATGATAATTACACCCATAAATTGATAATTATCACACCCATAAATTGATATTGCCTCTGATCATAGTCAGACCAACATTGCTACGACCCGTATTCGCACCGACACTG	-7.09 ± 0.12	-6.81 ± 1.7

Sequence	relative integration efficiency (log2) [1]	relative integration efficiency (log2) [2]
ACATTTGTTGAGCACACCATAAAATGATAATTACACCCATAAATTGATAATTATCACACCCATAAATTGATATTGCCTCTGATCATAGTCAGACCAACATTGCTACGACCCGTATTCGCACCGACAC	-0.523 ± 0.031	-1.83 ± 0.7
ACATTTGTTGAGCCAACCATAAAATGATAATTACACCCATAAATTGATAATTATCACACCCATAAATTGATATTGCCTCTGATCATAGTCAGACCAACATTGCTACGACCCGTATTCGCACCGACAC	-0.297 ± 0.0032	-0.934 ± 0.11
ACATTTGTTGATAAAACCATAAAATGATAATTAAACCCATAAATTGATAATTATCAAACCCATAAATTGATATTGCCTCTGATCATAGTCAGACCAACATTGCTACGACCCGTATTCGCACCGACAC	-0.472 ± 0.18	-0.129 ± 0.36
ACATTTGTTGATAAAACCATAAAATGATAATTAGACCCATAAATTGATAATTATCACACCCATAAATTGATATTGCCTCTGATCATAGTCAGACCAACATTGCTACGACCCGTATTCGCACCGACAC	-1.09 ± 0.15	-1.02 ± 0.36
ACATTTGTTGATAAAACCATAAAATGATTATTACACCCATAAATTGATAATTATCACACCCATAAATTGATATTGCCTCTGATCATAGTCAGACCAACATTGCTACGACCCGTATTCGCACCGACAC	-1.05 ± 0.087	-0.755 ± 0.22
ACATTTGTTGATAAAACCATAAAATGATTATTAGAAACCATAATCTGAAATTATCACACCCATAAATTGATATTGCCTCTGATCATAGTCAGACCAACATTGCTACGACCCGTATTCGCACCGACAC	-3.26 ± 0.065	-2.22 ± 0.34
ACATTTGTTGATAAAACCATAAAATGATTTTAAGAAACCATAATCTGAAATAATCACACCCATAAATTGATATTGCCTCTGATCATAGTCAGACCAACATTGCTACGACCCGTATTCGCACCGACAC	-3.13 ± 0.069	-1.78 ± 0.24
ACATTTGTTGATAAAACCATAAAATGATTTTTAGAAACCATAATCTGAAATTATCACACCCATAAATTGATATTGCCTCTGATCATAGTCAGACCAACATTGCTACGACCCGTATTCGCACCGACAC	-2.97 ± 0.17	-2.56 ± 0.33
ACATTTGTTGATAAAACCATACGTTGATTTTAAGAAACCATACGCTGAAATAATCACACCCATAAATTGATATTGCCTCTGATCATAGTCAGACCAACATTGCTACGACCCGTATTCGCACCGACAC	-6.06 ± 0.18	-3.87 ± 0.6
ACATTTGTTGATAAAACCATACGTTGATTTTACCACCCATAAATTGATAATTATCACACCCATAAATTGATATTGCCTCTGATCATAGTCAGACCAACATTGCTACGACCCGTATTCGCACCGACAC	-2.65 ± 0.17	-2.98 ± 0.21
ACATTTGTTGATAAAACCATACGTTGATTTTACGAAACCATACGCTGAAATAATCACACCCATAAATTGATATTGCCTCTGATCATAGTCAGACCAACATTGCTACGACCCGTATTCGCACCGACAC	-5.63 ± 0.18	-3.87 ± 1.2
ACATTTGTTGATAACACCATAAAATGATAATTACACCCATAAATTGATAATTATCACACCCATAAATTGATATTGCCTCTGATCATAGTCAGACCAACATTGCTACGACCCGTATTCGCACCGACAC	-0.41 ± 0.018	-0.747 ± 0.13
ACATTTGTTGATAACCAACGCCCCGTCGCCGGCACAAACGCCCGGTCGCCGGCTCAACAAACGCCCGGTCGCGGTACTCTGATCATAGTCAGACCAACATTGCTACGACCCGTATTCGCACCGACAC	-8.29 ± 1.1	-6.65 ± 2
ACATTTGTTGATAACCAACGCCCCGTCGCCGGCACAAACGCCCGGTCGCCGGCTCACACCCATAAATTGATATTGCCTCTGATCATAGTCAGACCAACATTGCTACGACCCGTATTCGCACCGACAC	-7.79 ± 0.73	< -10
ACATTTGTTGATAACCAACGCCCCGTCGCCGGCCACCCATAAATTGATAATTATCAACAAACGCCCGGTCGCGGTACTCTGATCATAGTCAGACCAACATTGCTACGACCCGTATTCGCACCGACAC	-7.3 ± 0.31	-3.55 ± 0.48
ACATTTGTTGATAACCACATAAAATGATAATTACACCCATAAATTGATAATTATCACACCCATAAATTGATATTGCCTCTGATCATAGTCAGACCAACATTGCTACGACCCGTATTCGCACCGACAC	-0.808 ± 0.095	-1.28 ± 0.093
ACATTTGTTGATACAAAAATAAAATGATAATTACACCCATAAATTGATAATTATCACACCCATAAATTGATATTGCCTCTGATCATAGTCAGACCAACATTGCTACGACCCGTATTCGCACCGACAC	-0.328 ± 0.18	-0.268 ± 0.48
